Patent US20190202901A1 (PIERRE FABRE MEDICAMENT, published 2019)

Assays:
[1] = target: T1, human IGF-1R, native, on cells (MCF-7, hIGF-1R transfected cells, tumor sections, primary normal cells) (human, UniProt P08069 31-1367); test: FACS titration on MCF-7 cells, 4 C, secondary antibody, MFI; EC50 table inside the plot
T1 construct: whole, on cells; also called native IGF-1R; human native IGF-1R

[2] = target: T2, monkey IGF-1R on COS-7 cells (monkey (African green monkey)); test: FACS titration on COS-7 cells, 4 C, secondary antibody, MFI; EC50 table inside the plot
T2 construct: whole, on cells; also called monkey native IGF-1R; Cos-7 (monkey IGF1R+)

[3] = target: T3, soluble recombinant human IGF-1R hetero-tetramer with C-terminal 10-His tag (R&D Systems 305-GR-50) (human, UniProt P08069 31-736; P08069 741-932); test: SPR Biacore X100, Ln(2)/koff
T3 construct: domain: alpha chain;domain: extracellular domain of the beta chain; Captured on an anti-His antibody chip; also called recombinant soluble human-IGF-1R; h-IGF-1R
Procedure: (§1) The dissociation constants (KD) of the binding of the antibodies on a recombinant soluble human-IGF-1R were defined by the ratio between the dissociation rate (koff) and the association rate (kₒₙ). The kinetic experiments were run on a Biacore X100 device using a CM5 sensor chip activated by a mouse anti-Tag His monoclobnal antibody. Around 12000 RU of antibodies are chemically grafted on the carboxymethyldextan matrix using the amine kit chemistry.
(§2) The experiments were carried out at 25° C. with a flow rate of 30 μl/min using the HBS-EP+ buffer (GE Healthcare) as the running and sample dilution buffer.
The single cycle kinetic scheme was used to define the kinetic parameters of the binding of the anti-IGF-1R antibodies on a soluble recombinant human IGF-1R captured by its two C-terminal 10 Histidine-tag. [0637] 1—A solution of a soluble recombinant version of the human IGF-1R hetero-tetramere: 2a chains and the extracellular domains of 2β chains expressed with an additional C-terminal 10-His tag (R&D Systems catalogue number 305-GR-50) was injected during one minute on the second flowcell at a concentration of 10 μg/ml. […] [0638] 2—After the capture phase, either the running buffer was injected 5 times (90 s each injection) or a growing range of 5 concentrations of one of the six antibodies was injected (90 s each injection) on both flowcells. […]

[4] = target: T1, human IGF-1R, native, on cells (MCF-7, …); test: cell-based or functional assay
[5] = target: T3, soluble recombinant human IGF-1R …; test: SPR Biacore X100, His-captured soluble h-IGF-1R (about 600 RU), mean of 4 experiments
Procedure: as §1, §2
The single cycle kinetic scheme was used to define the kinetic parameters of the binding of the anti-IGF-1R antibodies on a soluble recombinant human IGF-1R captured by its two C-terminal 10 Histidine-tag. [0637] 1—A solution of a soluble recombinant version of the human IGF-1R hetero-tetramere: 2a chains and the extracellular domains of 2β chains expressed with an additional C-terminal 10-His tag (R&D Systems catalogue number 305-GR-50) was injected during one minute on the second flowcell at a concentration of 10 μg/ml. […] [0638] 2—After the capture phase, either the running buffer was injected 5 times (90 s each injection) or a growing range of 5 concentrations of one of the six antibodies was injected (90 s each injection) on both flowcells. At the end of the fifth injection the running buffer was passed during 5 minutes in order to define the dissociation rate. [0639] 3—The surface was then generated with an injection of a 10 mM Glycine, HCl pH 1.5 buffer during 45 s.

[6] = target: T2, monkey IGF-1R on COS-7 cells; test: FACS titration on Cos-7 cells
Procedure: (§3) The binding properties of the humanized variants were evaluated by FACS analyses on the human MCF-7 breast adenocarcinoma cell line and the monkey cell line Cos-7 using increasing antibody concentrations. For that purpose, cells (1×10⁶ cells/ml) were incubated with anti-IGF-1R antibodies for 20 min. at 4° C. in FACS buffer (PBS, 0.1% BSA, 0.01% NaN3). They were then washed 3 times and incubated with the appropriate secondary antibody coupled with Alexa 488 for 20 additional minutes at 4° C. in the dark before being washed 3 times in FACS buffer. The binding of anti-IGF-1R antibodies was immediately performed on viable cells which were identified using propidium iodide (that stains dead cells). The EC₅₀ of binding expressed in molarity (M) was calculated using a nonlinear regression analysis (GraphPad Prims 4.0).

[7] = target: T4, human insulin receptor on cells (IM9 cells, hIR+ transfected cell line) (human, UniProt P06213 28-1382); test: FACS titration on NIH 3T3 IR+ cells (human insulin receptor transfected), 4 C, secondary antibody, MFI
T4 construct: whole, on cells; also called human IR

[8] = target: T1, human IGF-1R, native, on cells (MCF-7, …); test: FACS titration on MCF-7 cells
Procedure: as §3

EC50 [1]: 0.71 nM | EC50 [2]: 0.511 nM | half-life of the complex [3]: 2 to 3 h | % internalization (MCF-7, 10 µg/ml, 4 h) [4]: 87% | ΔMFI (MCF-7, 10 µg/ml, 4 h) [4]: 344 MFI | Kd [5]: ~0.06 nM | EC50 [6]: 0.51 nM | EC50 [8]: 0.709 nM
B1: hz208F2 H026/L024 (antibody, human IgG1, kappa, V domains shown)
VH: QVQLVQSGAEVKKPGASVKMSCKASGYTFTSYYIYWVKQAPGQGLEWLGWIWPGDGSTKYNEKFQGRVTLTADKSSNTAYMFLSSLRSEDTAVYFCASPMITPNYAMDYWGQGTLVTVSS
VL: DIQMTQSPSSLSASVGDRVTISCRASQDISKYLNWYQQKPGKAPKLLIYYTSRLHSGVPSRFSGRGSGTDYSLTISNLQPEDFATYFCQQGSTLPYTFGGGTKVEIKR
notes: also called hz208F2 VH3/VL3; hz208F2 VH3VL3
binding result [7]: no binding (tested: log [M] about -7.2 (about 6e-8 M))
